Test results published in IntAct's records for PubMed 29039417.

B1: BBSome complex member BBS4 (Homo sapiens), Q96RK4 (parent)
chain: MAEERVATRTQFPVSTESQKPRQKKAPEFPILEKQNWLIHLHYIRKDYEACKAVIKEQLQETQGLCEYAIYVQALIFRLEGNIQESLELFQTCAVLSPQSADNLKQVARSLFLLGKHKAAIEVYNEAAKLNQKDWEISHNLGVCYIYLKQFNKAQDQLHNALNLNRHDLTYIMLGKIHLLEGDLDKAIEVYKKAVEFSPENTELLTTLGLLYLQLGIYQKAFEHLGNALTYDPTNYKAILAAGSMMQTHGDFDVALTKYRVVACAVPESPPLWNNIGMCFFGKKKYVAAISCLKRANYLAPFDWKILYNLGLVHLTMQQYASAFHFLSAAINFQPKMGELYMLLAVALTNLEDIENAKRAYAEAVHLDKCNPLVNLNYAVLLYNQGEKKNALAQYQEMEKKVSLLKDNSSLEFDSEMVEMAQKLGAALQVGEALVWTKPVKDPKSKHQTTSTSKPASFQQPLGSNQALGQAMSSAAAYRTLPSGAGGTSQFTKPPSLPLEPEPAVESSPTETSEQIREK
partner: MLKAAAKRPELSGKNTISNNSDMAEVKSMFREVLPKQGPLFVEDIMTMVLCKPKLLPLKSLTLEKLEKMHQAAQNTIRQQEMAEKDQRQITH

Variants of: B1
Conditions: with bbip1_human BBIP1, A8MTZ0

Effect of a mutation on the interaction, with no effect:
A427E
V430K
V430E
N390K
C279A
K389A
H314E
G277K
G277A
E416K
D353A
T449A
L497E
G311K
G311E
C292K
T452K
S269K
A288K
S451E
S451A
S451K
E518A
E518K
P503E
L340A
V402K
Y395K
F302E
F302A
S474K
S474A
S474E
S507K
G484K
F413E
F413K
S473A
D368K
F280K
V435K
V435E
A323K
I276A
I276E
L310E
E432K
E432A
W436E
V365A
V365K
Q318E
T316E
T316A
T316K
S291A
S291E
P439K
L434A
E412A
E268A
I290A
M420K
Q460K
L315E
A475E
L381K
W304K
V374K
A360K
K406E
D414K
N465A
N465E
A476K
L462K
L462A
A485E
N356K
Y361A
F324A
Y320A
E399K
A362K
I306A
S483K
Q385E
K369E
K369A
P372E
R517A
A456E
E500A
E500K
A433E
C370E
C370A
C370K
L293K
S328E
E511K
Y286K
Y286A
P335A
P498A
P498E
N350K
P495A
M317K
E363K
A330E
L499K
R295K
T349K
N371E
Q334A
P494A
L344A
G431A
Q490A
S403K
S403E
K400A
K454E
G469K
G469E
R479E
Y383E
M417A
K285A
E352K
N408K
L428A
L428E
L404E
P482A
M398E
K305E
G338K
A300K
P509E
P443K
F491K
F491E
V287K
V287E
K519A
A421K
A329E
T488A

Effect of a mutation on the interaction, disrupting interaction strength:
L373S
H314P
G311D
N332F
N377C
N377D
K401E
L310W
L310S
M342T
M342R
M342K
L343H
A345V
F281S
I306P
I306T
P372S
V380A
L351P
P335T
A330V
N384Y
A347D
G338R
